Series [1] has as its target ctPrp43 (Chaetomium thermophilum? (printed C. …, UniProt G0RY84 1-764)). Briefly: fluorescence anisotropy; AMPPNP (100-fold excess), 3 mM MgCl2; Fluorescence anisotropy: 25 mM Tris pH 7.5, 150 mM KCl, 3 mM MgCl2, 25 C, 0.1 uM RNA, 0.01-50 uM protein, 100-fold excess AMPPNP. Particulars: protein: recombinant; tags: GST-tag removed; label: 5' 6-carboxyfluorescein; single strand.

Series [2] addresses ctPrp43-HT (Hook-Turn mutant) (Chaetomium thermophilum? (printed C. …, UniProt G0RY84 1-764, R180G;F181G)). The description is as above. Particulars: protein: recombinant; tags: GST-tag removed; label: 5' 6-carboxyfluorescein; single strand.

Sequence of ctPrp43 (Chaetomium thermophilum? (G0RY84 entry or part of it): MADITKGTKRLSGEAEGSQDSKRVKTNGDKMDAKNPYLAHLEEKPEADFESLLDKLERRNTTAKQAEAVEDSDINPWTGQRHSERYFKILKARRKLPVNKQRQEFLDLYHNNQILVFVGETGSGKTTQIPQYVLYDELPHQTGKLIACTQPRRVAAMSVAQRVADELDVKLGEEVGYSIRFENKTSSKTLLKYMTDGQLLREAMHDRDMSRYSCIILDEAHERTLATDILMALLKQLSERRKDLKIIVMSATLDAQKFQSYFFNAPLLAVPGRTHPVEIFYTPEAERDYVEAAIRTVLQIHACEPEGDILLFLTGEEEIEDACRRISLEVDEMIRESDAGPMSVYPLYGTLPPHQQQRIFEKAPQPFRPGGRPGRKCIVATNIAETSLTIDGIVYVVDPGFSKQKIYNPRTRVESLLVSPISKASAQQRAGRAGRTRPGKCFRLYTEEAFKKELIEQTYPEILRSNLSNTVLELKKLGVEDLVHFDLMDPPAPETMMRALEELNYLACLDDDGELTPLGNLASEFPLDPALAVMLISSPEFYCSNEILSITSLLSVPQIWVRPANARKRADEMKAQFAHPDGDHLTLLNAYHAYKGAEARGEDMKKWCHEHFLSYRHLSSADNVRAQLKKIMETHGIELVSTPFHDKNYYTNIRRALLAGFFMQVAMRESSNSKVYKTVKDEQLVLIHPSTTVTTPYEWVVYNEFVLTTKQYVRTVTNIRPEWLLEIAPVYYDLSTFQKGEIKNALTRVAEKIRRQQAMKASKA
Sequence of ctPrp43-HT (Hook-Turn mutant) (Chaetomium thermophilum? (G0RY84 entry or part of it R180G;F181G | mutant): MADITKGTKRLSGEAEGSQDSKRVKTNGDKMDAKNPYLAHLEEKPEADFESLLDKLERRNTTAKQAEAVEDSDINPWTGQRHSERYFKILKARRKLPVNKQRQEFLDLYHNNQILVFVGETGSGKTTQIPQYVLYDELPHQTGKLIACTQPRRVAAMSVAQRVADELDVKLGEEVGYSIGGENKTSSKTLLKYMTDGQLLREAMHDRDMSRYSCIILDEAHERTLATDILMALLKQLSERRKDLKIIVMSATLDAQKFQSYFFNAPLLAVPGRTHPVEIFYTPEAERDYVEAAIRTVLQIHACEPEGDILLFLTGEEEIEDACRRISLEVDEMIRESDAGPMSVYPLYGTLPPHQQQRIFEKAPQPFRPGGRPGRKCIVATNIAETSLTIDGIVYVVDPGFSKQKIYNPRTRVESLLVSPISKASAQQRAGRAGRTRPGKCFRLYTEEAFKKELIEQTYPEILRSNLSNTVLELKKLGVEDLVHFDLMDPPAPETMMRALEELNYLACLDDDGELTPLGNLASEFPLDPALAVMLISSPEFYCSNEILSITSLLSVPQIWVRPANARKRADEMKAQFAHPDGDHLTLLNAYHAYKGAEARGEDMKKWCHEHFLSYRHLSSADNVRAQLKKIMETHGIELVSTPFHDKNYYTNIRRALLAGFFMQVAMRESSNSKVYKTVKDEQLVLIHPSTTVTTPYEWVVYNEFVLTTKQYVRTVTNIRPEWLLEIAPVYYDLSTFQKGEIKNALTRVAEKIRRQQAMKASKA

As for UUUUUUUUUUUUUUUU (ssRNA) [5'-6FAM-U16-RNA], the values for the Kd in series [1] and in series [2] were 4980 ± 570 nM and 840 ± 50 nM, respectively.

Source of the values: publication PMC5262380, “Structural insights into the mechanism of the DEAH-box RNA helicase Prp43”.
